Assay: yeast display, Sf9 membrane polyspecificity reagent, FACS + sequencing; frameworks hold sequencing errors
In short: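 A nanobody's polyreactivity label depends on the gate it was sorted from. Yeast display cells were stained with 10% biotinylated, detergent-solubilized Sf9 membrane reagent for 1 hour at 4 °C, enriched on streptavidin microbeads and sorted by FACS. The low and high (top ~1%) gates were set on anti-HA fluorescence for expression and streptavidin fluorescence for reagent binding.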

Row | Sequence | polyreactivity (PSR sort gate)
1 | QVQLVESGGGLVQAGGSLRLSCAASGRIFDRNAMGWYRQAPGTERELVAAISRRGGSTYYADSVKGRFTISRDNAMNTVYLQMNSLKPEDTAVYYCNTGYSTRLHDYWGQGTQVTVSS | high polyreactivity
2 | QVQLVESGGGLVQAGGSLRLSCAASGRIFDRYAMGWYRQAPGKEMELVAAISSDANTYYADSVKGRFTISRDNAKNTVYLQMNSLKPEDTAVYYCAKVVKGDHPYDYWGQGTQVTVSS | high polyreactivity
3 | QVQLVESGGGLVQAGGSLRLSCAASGRIFDRYAMGWYRQAPGKERELVAVITGGTGNTYYADSVKGRFTISRDNAKNTVYLQMNSLKPEDTAVYYCNARGGYYKFRYPLYYWGQGTQVTVSS | high polyreactivity
4 | QVQLVESGGGLVQAGGSLRLSCAASGRIFDSNAMGWYRQAPGKERELVAAITYSGGGTFYADSVKGRITISRDNEKNTDYLQMNSLKPEDTAVYYCAARTSGKYRYYYWGQGTQVTVSS | high polyreactivity
5 | QVQLVESGGGLVQAGGSLRLSCAASGRIFDSNDMGWYRQAPGKEREFVAAITSSGGSTYYADSVKGRFTISRDNAKNTVYLQMNSLKPEDTAVYYCAARVYPRPQSYDKRYYWGQGTQVTVSS | low polyreactivity
6 | QVQLVESGGGLVQAGGSLRLSCAASGRIFDSYAMGWYRQAPGKERELVATISWDSATTYYADSVKGRFTISRDNAKNTVYLQMNSLKPEDTAVYYCNTRDLYGYPQVTGYDYWGQGTQVTVSS | low polyreactivity
7 | QVQLVESGGGLVQAGGSLRLSCAASGRIFDTNVMGWYRQAPGTEREFVAAIRWNGGSTNYADSVKGRFTISRDNAKNTVYLQMNSLKPEDTAVYYCAADGSIGWRHIYEYWGQATQVTVSS | low polyreactivity
8 | QVQLVESGGGLVQAGGSLRLSCAASGRIFDVNAMGWYRQAPGKERELVAAITYSDGSTYYADSVKGRFTISRDNAKNTVYLQMNSLKPEDTAVYYCAATQEPVTPQPYGYWGQGTQVTVSS | low polyreactivity
9 | QVQLVESGGGLVQAGGSLRLSCAASGRIFDVYAMGWYRQAPGKERELVAAITGSGGSTYYADSVKGRFTISRDNAKNTVYLQMNSLKPEDTAVYYCNAVGIWFPIRLIVPYDYWGQGTQVTVSS | low polyreactivity
10 | QVQLVESGGGLVQAGGSLRLSCAASGRIFDWYAMGWYRQAPGKERELVAAISTSGANTYYADSVKGRITISRDNAKNTVYLQMNSLKPEDSGVYYCATDPYQPYEGDYWGQGTQVTVSS | low polyreactivity
11 | QVQLVESGGGLVQAGGSLRLSCAASGRIFDWYAMGWYRQAPGKERELVAAITTSADRTYYADSVKGRFTISRDNAKNTVYLQMNSMKPEDTAVYYCNADAFGGYDEYDYWGQGTQVTVSS | low polyreactivity
12 | QVQLVESGGGLVQAGGSLRLSCAASGRIFDYNAMGWYRQAPAKERELVAAITWSGGSTHYADSVKGRFTISRDNAKNTVYLQMKSLKPEDTAVYYCAADIGGDYLVFYYRGGYDYWGQGNQVTVSS | low polyreactivity
13 | QVQLVESGGGLVQAGGSLRLSCAASGRIFDYNAMGWYRQAPGKERELVAAINSGGSTYADSVKGRFTISRDNAKNTVYLQMNSLNPEDTAVYYCAKSLGQTDWEYDSWGQGTQVTVSS | low polyreactivity
14 | QVQLVESGGGLVQAGGSLRLSCAASGRIFDYNDMGWYRQAPGTERELVAGISSGGSTYYADSVKGRFTISRDNAKNTVYLQMNSLKPEDTAVYYCAAGGRPYRGYGYWGQGTQVTVSS | high polyreactivity
15 | QVQLVESGGGLVQAGGSLRLSCAASGRIFDYNTMGWYRQAPGKERELVAAITGGTGSTYYADSVKGRFTISRDNAKNTVYLQMNSLKPEDTAVYYCAAGFHKRVSPEILYDYWGQGTLVTVSS | low polyreactivity
16 | QVQLVESGGGLVQAGGSLRLSCAASGRIFDYNVMGWYRQAPGKERELVADINGSGGGTNYADSVKGRFTISRDNAKNTVYLQINTLKPEDTAVYYCNADSYEYHVPYYDYRYDYCGQGTQVTVSS | low polyreactivity
17 | QVQLVESGGGLVQAGGSLRLSCAASGRIFDYYAMAWYRQAPGKERELVSAISSNGVSTYYADSVKGRFTISRDNPKNTVYLQMNSLKPEDTAVYYCAADPTRHSSFPQYDSWGQGTQVTVSS | low polyreactivity
18 | QVQLVESGGGLVQAGGSLRLSCAASGRIFDYYAMGSYRQAPGNERELVDAISSGDNTYYADSVKGRFTISRDNAKNTVYLQMNSLKPEDTAVYYCAADVSRFGYYGIGFYYWRQGTQVTVSS | low polyreactivity
19 | QVQLVESGGGLVQAGGSLRLSCAASGRIFDYYAMGWYRQAPGKERELVAAISLIGASTYYADSVKGRFTISRDNAKNSVYLQMNSLKQEDPAVDYCAAQYAFEVPGYYREDYYWGQGTQVTVSS | low polyreactivity
20 | QVQLVESGGGLVQAGGSLRLSCAASGRIFDYYAMGWYRQAPGKERELVAGITSDGDITYYADSVKGRFTISRDNAKNTVYLQMNSLKPEDTAVYYCAADSPHPVRYDYWGQGTQVTVSS | low polyreactivity
21 | QVQLVESGGGLVQAGGSLRLSCAASGRIFDYYAMGWYRQAPGKERELVARISIGGSTYADSVKGRFTISRDNAKNTVYLQMNSLKPEDSAVDYCADSTIRLVGYRTYWGPRYDYWGQGTQVTVSS | low polyreactivity
22 | QVQLVESGGGLVQAGGSLRLSCAASGRIFDYYAMGWYRQAPGKERELVARITSGGTTNYADSVKGRFTISRDNAKNPVYLQMNSLKPEDTAVYYCAADVYGTVRRVGWYYVGEGYDYWGQGTQVTVSS | low polyreactivity

Row | Sequence | polyreactivity (PSR sort gate)
23 | QVQLVESGGGLVQAGGSLRLSCAASGRIFEDNGMGWYRQAPGKEREFVATISWDGDRTYYADSVKGRFTISRDNAKNTVYFQMNSLKPEDTAVYYCNADLPLWPFRGYEYWGQGTQVTVSS | low polyreactivity
24 | QVQLVESGGGLVQAGGSLRLSCAASGRIFEDYMVWYRHAPGKDRELVAAIRWSGGGTYYADSVKGRFTISRDNAKNTVYLQMTSLKPEDTAVYYCATPGTGSVEVYGYWGQGTQVTVSS | low polyreactivity
25 | QVQLVESGGGLVQAGGSLRLSCAASGRIFEGYAMGWYRPAPGKQRELVAAISKSGGRTNYADSVKGRFTISRDNAKNTVYLQMNSLKPEDSAVYYCNAGIKYWGSDFFYWGQVTQVTVSS | high polyreactivity
26 | QVQLVESGGGLVQAGGSLRLSCAASGRIFEHNAMGWSRQAPGKEMEFVAAISSSGGSTYYADSVKGRFTISRDNAKNTVYLQMNSLKPEDTAVYYCNAGSTYYERNYWGQGTQVTVSS | low polyreactivity
27 | QVQLVESGGGLVQAGGSLRLSCAASGRIFEINAMGWYRQAPGKERELVAAITRSGGSTYYADSVKGRFTISRDNAKNTVYLQMNSLKPEDTAVYYCAARGRYWYSRYYSWGQGTQVTVSS | high polyreactivity
28 | QVQLVESGGGLVQAGGSLRLSCAASGRIFEPYTMGWYRQAPGKEREFVATITASGDSTYYADSVKGRFTISRDNAKNTVFLQMNSLKPEDTAVYYCAAAPFGGYEYDYWGQGTQVTVSS | high polyreactivity
29 | QVQLVESGGGLVQAGGSLRLSCAASGRIFERNAMGWYRQAPGKERELVAAITYNGGRTYYAVSVKGRFTISRDNAKNTVYLQINSQKPEDTAVYYYNAQSRVTRSSYRGSPRYDYWGQGTQVTVSS | high polyreactivity
30 | QVQLVESGGGLVQAGGSLRLSCAASGRIFERYAMGWYRQAPGKERELVAAISYRGGRTYYADSVKGRFTISRDNAKNTVYLQMNSLKPEDTAVYYCAAVEVRRVADYGFGLLDYWGQGSQVTVSS | high polyreactivity
31 | QVQLVESGGGLVQAGGSLRLSCAASGRIFEVYVMGWYRQAPGKERELVAAITTSGGSTYYADSVKGRFTISRDNAKNTVYLQMNSLKPEDTAVYYCNRYWHLAGSWGQGTQVTVSS | low polyreactivity
32 | QVQLVESGGGLVQAGGSLRLSCAASGRIFEYYAMGWYRQAPGKERELVAAINSSGGSTYYADSVKGRFTISRDNAKNTVYLQMNSLKPEDTAVYYCAARSYASPGWRYEYWGQGTQVTVSS | low polyreactivity
33 | QVQLVESGGGLVQAGGSLRLSCAASGRIFFDYAMGWYRQAPGKERELVADIDWSGGITYYADSVKGRFTISRDNAKNTVYLQMNSLIPEDTAVYYCAADFDELYPTTAYGEFEYWGQGTQVTVSS | high polyreactivity
34 | QVQLVESGGGLVQAGGSLRLSCAASGRIFFDYAMGWYRQAPGKERELVADISYNGGSTNYADSVKGRFTISRDNAKNTLYLQMNSLKPEDTADYYCNRAFVPVYDLDYYWGQGTQVTVSS | low polyreactivity
35 | QVQLVESGGGLVQAGGSLRLSCAASGRIFFGYAMGWYRQAPGKERELVAAITRRGTITHYADSVKGRFTISRDNAKNTVYLQMNSLKPEDTAVYYCNTVYARYSTAPGYNYWGQGTQVTVSS | high polyreactivity
36 | QVQLVESGGGLVQAGGSLRLSCAASGRIFFIYAMGWYRQAPGKERELVAGINRTGGSTYYADSVKGRFTISRDNAKNTVYLQMNSLKPEDTAVYYCAAVSYYASDYRYDYWGQGTQVTVSS | low polyreactivity
37 | QVQLVESGGGLVQAGGSLRLSCAASGRIFFLYAMGWYRQAPGKERELVAAITWSADGTYYADSVKGRFTISRDNAKNTVYLQMNSLKPEDTAVYYCNADAYTTASSYNWWYYYWGQGTQVTVSS | low polyreactivity
38 | QVQLVESGGGLVQAGGSLRLSCAASGRIFFNYAMGWYRQAPGKVRELVASITWRGGNTYYADSVKGRFTISRDNAKNTVYLQMNSLKPEDTAVYYCAASIRRAGRTYYYWGQGTQVTVSS | high polyreactivity
39 | QVQLVESGGGLVQAGGSLRLSCAASGRIFFPYYTMGWYRQAPGKERELVAVISSSGSSTYYADSVKGRFTISRDNAKNTVYLQMNSLKPEDTAVYFCNAYGGVSTRLRGDYWGQGTQVTVSS | high polyreactivity
40 | QVQLVESGGGLVQAGGSLRLSCAASGRIFFRYAMGWYRQAPGKEREFVAAISCTGGSTYYADSVKGRFTISRDNAKNTVYLQMNSLKPEDTAVYYCAASVVSRPTYYAYYYWGQGTQVTVSS | high polyreactivity
41 | QVQLVESGGGLVQAGGSLRLSCAASGRIFFSYDMGWYTQAPGKERELVAAIDYIAGNTYYADSVKGRFTISRDNAKNTVYLQMNSLKPEDTAVYYCAADVLDWYDLLRDDYWGQGTQVTVSS | low polyreactivity
42 | QVQLVESGGGLVQAGGSLRLSCAASGRIFFTNAMGWYRQAPGKERELGAAIRFSGGRTYYADSVKGRFTISGDNAKNTVYLQMNSLKPEDTAVYYCAADPPRTRYRNARFDYWGQGTQVTVSS | high polyreactivity
43 | QVQLVESGGGLVQAGGSLRLSCAASGRIFFTNAMGWYRQAPGKERELVAAIRSSGGRTYYADSVKGRFTISRDNAKNTVYLQMNSLKPEDTAVYYCNVVDGRHISHYNYWGQGTQVTVSS | high polyreactivity

Source: the nanobody polyreactivity screen of Harvey et al. (2022)
